Reference: PMC11320999, “APH(3’)-Ie, an aminoglycoside-modifying enzyme discovered in a rabbit-derived Citrobacter gillenii isolate” (Frontiers in Cellular and Infection Microbiology, 2024)

How the values were obtained:
Experiment in all cases: purified protein
Type in all cases: biochemical, Citrobacter gillenii
Details in all cases: 1 mM ATP, 1 mM MgCl2, 2 mM KCl, 100 mM HEPES pH 7.0, 25 °C
[1] = test system: NC[C@H]1O[C@H](O[C@H]2[C@H](O)[C@@H](O[C@H]3O[C@H](CO)[C@@H](O)[C@H](N)[C@H]3O)[C@H](N)C[C@@H]2N)[C@H](O)[C@@H](O)[C@@H]1O
[2] = test system: NC[C@H]1O[C@H](O[C@H]2[C@H](O[C@@H]3O[C@H](CO)[C@@H](O)[C@H]3O)[C@@H](O)[C@H](N)C[C@@H]2N)[C@H](N)[C@@H](O)[C@@H]1O
[3] = test system: NC[C@@H]1O[C@H](O[C@H]2[C@@H](O)[C@H](O[C@@H]3[C@@H](O)[C@H](N)C[C@H](N)[C@H]3O[C@H]3O[C@H](CO)[C@@H](O)[C@H](O)[C@H]3N)O[C@@H]2CO)[C@H](N)[C@@H](O)[C@@H]1O

Substance: APH(3’)-Ie (Citrobacter gillenii)
- Km [1]: 20.99 ± 1.84 µM
- kcat [1]: 1.06 ± 0.05 s⁻¹
- kcat/Km [1]: 50800 ± 4400 M⁻¹ s⁻¹
- Km [2]: 4.22 ± 0.88 µM
- kcat [2]: 1.31 ± 0.09 s⁻¹
- kcat/Km [2]: 323000 ± 81000 M⁻¹ s⁻¹
- Km [3]: 7.74 ± 1.44 µM
- kcat [3]: 0.86 ± 0.01 s⁻¹
- kcat/Km [3]: 114000 ± 28000 M⁻¹ s⁻¹
